Test results reported in patent publication EP3211087A1 (National University Corporation Nagoya University, dated 2017).

B1: human Cavin-1 (other, UniProt Q6NZI2 1-390, looked up)
chain: MEDPTLYIVERPLPGYPDAEAPEPSSAGAQAAEEPSGAGSEELIKSDQVNGVLVLSLLDKIIGAVDQIQLTQAQLEERQAEMEGAVQSIQGELSKLGKAHATTSNTVSKLLEKVRKVSVNVKTVRGSLERQAGQIKKLEVNEAELLRRRNFKVMIYQDEVKLPAKLSISKSLKESEALPEKEGEELGEGERPEEDAAALELSSDEAVEVEEVIEESRAERIKRSGLRRVDDFKKAFSKEKMEKTKVRTRENLEKTRLKTKENLEKTRHTLEKRMNKLGTRLVPAERREKLKTSRDKLRKSFTPDHVVYARSKTAVYKVPPFTFHVKKIREGQVEVLKATEMVEVGADDDEGGAERGEAGDLRRGSSPDVHALLEITEESDAVLVDKSDSD
notes: whole, on cells; Endogenous protein in cell extracts, or full-length cDNA expressed from pCMV-puro in COS-7 cells for IP-WB; also called Cavin-1-WT; pCMVpuro-Cavin-1

Key:
[1] = biological target: T1, human ROR1 (receptor tyrosine kinase-like orphan receptor 1) (human, UniProt Q01973 30-937); assay: IP-WB of octyl glucoside cell extracts, NCI-H1975 and SK-LU-1
T1 construct: whole, on cells; also called ROR1-WT; endogenous ROR1
T1 sequence (Q01973 30-937): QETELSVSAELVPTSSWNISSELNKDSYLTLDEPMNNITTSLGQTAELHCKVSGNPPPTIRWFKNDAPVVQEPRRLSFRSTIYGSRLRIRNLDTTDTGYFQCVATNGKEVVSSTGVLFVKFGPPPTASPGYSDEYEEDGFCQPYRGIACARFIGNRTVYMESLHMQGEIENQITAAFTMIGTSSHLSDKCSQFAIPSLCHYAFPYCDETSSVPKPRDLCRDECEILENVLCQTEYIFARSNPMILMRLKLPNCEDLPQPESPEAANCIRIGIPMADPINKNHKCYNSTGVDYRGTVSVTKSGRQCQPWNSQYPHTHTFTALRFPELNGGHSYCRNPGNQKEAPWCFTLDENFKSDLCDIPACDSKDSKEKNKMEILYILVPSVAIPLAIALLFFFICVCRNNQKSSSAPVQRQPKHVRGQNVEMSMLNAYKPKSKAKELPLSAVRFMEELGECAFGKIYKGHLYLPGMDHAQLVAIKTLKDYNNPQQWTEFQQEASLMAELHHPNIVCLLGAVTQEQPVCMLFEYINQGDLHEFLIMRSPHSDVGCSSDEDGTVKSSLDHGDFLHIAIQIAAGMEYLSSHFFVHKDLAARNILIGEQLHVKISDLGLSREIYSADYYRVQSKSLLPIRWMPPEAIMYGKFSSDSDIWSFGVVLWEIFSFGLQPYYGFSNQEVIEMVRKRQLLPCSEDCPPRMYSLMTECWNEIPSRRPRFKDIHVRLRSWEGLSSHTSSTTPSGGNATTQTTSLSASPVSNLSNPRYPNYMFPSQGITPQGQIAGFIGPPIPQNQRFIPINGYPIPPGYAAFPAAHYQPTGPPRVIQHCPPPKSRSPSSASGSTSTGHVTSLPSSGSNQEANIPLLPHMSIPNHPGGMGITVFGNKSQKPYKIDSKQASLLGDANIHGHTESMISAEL

human Cavin-1 = biological target: B1; assay: legend of FIG. 4(6): IP-WB
[2] = biological target: T1, human ROR1 (receptor tyrosine …); assay: legend of FIGS. 4(3) and (4): IP-WB, NCI-H1975 and SK-LU-1

binding result [1] | binding result (human Cavin-1) | binding result [2] | Binder
no binding | – | – | Cavin-2 (other, human, UniProt O95810 2-425, looked up, whole, on cells; Detected with anti-Cavin-2 (Abcam) in IP-WB of cell extracts) GEDAAQAEKFQHPGSDMRQEKPSSPSPMPSSTPSPSLNLGNTEEAIRDNSQVNAVTVLTLLDKLVNMLDAVQENQHKMEQRQISLEGSVKGIQNDLTKLSKYQASTSNTVSKLLEKSRKVSAHTRAVKERMDRQCAQVKRLENNHAQLLRRNHFKVLIFQEENEIPASVFVKQPVSGAVEGKEELPDENKSLEETLHTVDLSSDDDLPHDEEALEDSAEEKVEESRAEKIKRSSLKKVDSLKKAFSRQNIEKKMNKLGTKIVSVERREKIKKSLTSNHQKISSGKSSPFKVSPLTFGRKKVREGESHAENETKSEDLPSSEQMPNDQEEESFAEGHSEASLASALVEGEIAEEAAEKATSRGSNSGMDSNIDLTIVEDEEEESVALEQAQKVRYEGSYALTSEEAERSDGDPVQPAVLQVHQTS
binds | – | – | B1
– | binds | binds | human Caveolin 1 (CAV1) (other, UniProt Q03135 2-178, looked up, whole, on cells; Endogenous protein in cell extracts, or full-length cDNA expressed from pCMV-puro in COS-7 cells for IP-WB; also called CAV1-WT; pCMVpuro-CAV1) SGGKYVDSEGHLYTVPIREQGNIYKPNNKAMADELSEKQVYDAHTKEIDLVNRDPKHLNDDVVKIDFEDVIAEPEGTHSFDGIWKASFTTFTVTKYWFYRLLSALFGIPMALIWGIYFAILSFLHIWAVVPCIKSFLIEIQCISRVYSIYVHTVCDPLFEAVGKIFSNVRINLQKEI
